Experimental data as given in patent US20120039846A1.

Columns and labels:
[1] = target: H77c E2 mutant, Ala531 substituted (hepatitis C virus genotype 1a, strain H77c) (UniProt P27958); assay: ELISA on GNA-captured mutant E2 from 293T lysates
[2] = target: H77c E2 mutant, Thr534 substituted (hepatitis C virus genotype 1a, strain H77c) (UniProt P27958); assay: ELISA on GNA-captured mutant E2 from 293T lysates
[3] = target: H77c E2 mutant, Asn532 substituted (hepatitis C virus genotype 1a, strain H77c) (UniProt P27958); assay: ELISA on GNA-captured mutant E2 from 293T lysates
[4] = target: H77c E2 mutant, Asp533 substituted (hepatitis C virus genotype 1a, strain H77c) (UniProt P27958); assay: ELISA on GNA-captured mutant E2 from 293T lysates
[5] = target: H77c E2 mutant, Asn540 replaced by alanine (hepatitis C virus genotype 1a, strain H77c) (UniProt P27958); assay: ELISA on GNA-captured mutant E2 from 293T lysates
[6] = target: H77c E2 mutant, Trp529 replaced by alanine (hepatitis C virus genotype 1a, strain H77c) (UniProt P27958); assay: ELISA on GNA-captured mutant E2 from 293T lysates
[7] = target: H77c E2 mutant, Asp535 replaced by alanine (hepatitis C virus genotype 1a, strain H77c) (UniProt P27958); assay: ELISA on GNA-captured mutant E2 from 293T lysates
[8] = target: H77c E2 mutant, Pro525 substituted (hepatitis C virus genotype 1a, strain H77c) (UniProt P27958); assay: ELISA on GNA-captured mutant E2 from 293T lysates
[9] = target: H77c E2 mutant, Gly523 replaced by alanine (hepatitis C virus genotype 1a, strain H77c) (UniProt P27958); assay: ELISA on GNA-captured mutant E2 from 293T lysates
[10] = target: H77c E2 mutant, Gly530 replaced by alanine (hepatitis C virus genotype 1a, strain H77c) (UniProt P27958); assay: ELISA on GNA-captured mutant E2 from 293T lysates
[11] = target: HCV envelope glycoprotein E2, genotype 1b (hepatitis C virus genotype 1b); assay: CD81 capture ELISA; 1b E1E2 lysate preincubated with antibody (15 µg/ml), added to CD81-coated wells, detected with biotinylated CBH-4D
[12] = target: H77c E2 mutant D658A (hepatitis C virus genotype 1a, strain H77c) (UniProt P27958); assay: alanine replacement, ELISA
[13] = target: H77c E2 mutant F679A (hepatitis C virus genotype 1a, strain H77c) (UniProt P27958); assay: alanine replacement, ELISA
[14] = target: H77c E2 mutant I696A (hepatitis C virus genotype 1a, strain H77c) (UniProt P27958); assay: alanine replacement, ELISA
[15] = target: H77c E2 mutant D698A (hepatitis C virus genotype 1a, strain H77c) (UniProt P27958); assay: alanine replacement, ELISA
[16] = target: H77c E2 mutant L692A (hepatitis C virus genotype 1a, strain H77c) (UniProt P27958); assay: alanine replacement, ELISA
[17] = target: H77c E2 mutant R657A (hepatitis C virus genotype 1a, strain H77c) (UniProt P27958); assay: alanine replacement, ELISA
[18] = target: HCV envelope glycoprotein E2, genotype 1a (hepatitis C virus genotype 1a) (UniProt P27958); assay: cell-based or functional assay
[19] = target: HCV envelope glycoprotein E2, genotype 1b (hepatitis C virus genotype 1b); assay: competition ELISA on GNA-captured E2 of 1b HCVpp lysate; competing antibody 20 ug/ml; competitor: biotinylated CBH-7 at 2 ug/ml
[20] = target: H77c E2 with substitutions at Val536 (row 10), Phe537 (row 11) and Asn540 (row 12); assay: ELISA on GNA-captured mutant E2 from 293T lysates

In the case of human monoclonal antibody HC-1, the percent change in binding vs wild type [1] is reported as < 20%, the percent change in binding vs wild type [2] is reported as < 20% and the percent change in binding vs wild type [3] is reported as < 20%. The percent change in binding vs wild type [4] was < 20%, the percent of wild-type binding (% of wild type) [5] was < 10 and the percent of wild-type binding (% of wild type) [6] was < 10. The percent decrease in binding vs wild type [7] was > 80%, the percent change in binding vs wild type [8] was < 20% and the percent decrease in binding vs wild type [9] was 60%. The percent decrease in binding vs wild type [10] was > 80%, the percent of wild-type binding (% of wild type) [10] was < 10 and the percent reduction of E2 binding to CD81 [11] was > 90%.
For human monoclonal antibody HC-3, the percent decrease in binding [12] was > 90%, the percent decrease in binding [13] was > 90% and the percent decrease in binding [14] was > 90%. The percent decrease in binding [15] was > 90%, the percent decrease in binding [16] was > 90% and the percent decrease in binding [17] was > 90%.
CBH-5 (antibody) was tested, and the IC50 of 1a HCVpp neutralization [18] was 4 µg/mL, the neutralization of 1a HCVpp at 20 µg/ml [18] was 60% and the percent reduction of E2 binding to CD81 [11] was > 90%.
human monoclonal antibody CBH-23 was tested, and the percent competition [19] was > 90% and the percent reduction of E2 binding to CD81 [11] was > 90%.
For HC-12 (antibody), the percent change in binding vs wild type [1] was < 20%, the percent change in binding vs wild type [2] was < 20% and the percent change in binding vs wild type [3] was < 20%. For the same substance, the percent change in binding vs wild type [4] was < 20% and the percent change in binding vs wild type [8] was < 20%.
CBH-4G (antibody) gave a percent decrease in binding vs wild type [20] of 70 to 95%.
For human monoclonal antibody HC-11, the IC50 of 1a HCVpp neutralization [18] was 0.9 µg/mL, the percent decrease in binding vs wild type [6] was 44% and the percent decrease in binding vs wild type [9] was 60%. For the same substance, the percent reduction of E2 binding to CD81 [11] was > 90%.
